Data: patent US20130071921A1 (Pfizer, published 2013)

T1: Recombinant human Dkk-1 (R&D Systems cat no. 1096-DK/CF), 10xHis tag at the C terminal (human, UniProt O94907 32-266)
T1 construct: the actual N-terminus of the purified protein is marked in bold italic after residue 30, but the mark is an image lost in the text; also called rhuDkk-1; hDkk-1
T1 sequence: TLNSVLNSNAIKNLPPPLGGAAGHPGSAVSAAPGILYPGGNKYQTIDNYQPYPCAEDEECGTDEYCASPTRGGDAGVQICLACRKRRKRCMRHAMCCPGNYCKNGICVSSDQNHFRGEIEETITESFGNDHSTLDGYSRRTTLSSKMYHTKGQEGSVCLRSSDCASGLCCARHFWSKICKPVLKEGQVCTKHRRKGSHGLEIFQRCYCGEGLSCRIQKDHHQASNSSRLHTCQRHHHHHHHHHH


Assays:
[1] = target: T1, Recombinant human Dkk-1 (R&D Systems …); assay: theoretical: koff / estimated kon 1e6 1/Ms (SPR screening 37C)
Description: (§1) For screening assays to determine binding and dissociation rates of huMabJC18 variants to human Dkk1, either BIAcore or ProteOn XPR36 (BioRad, Inc.) systems were used. For the BIAcore assay, biotinylated-human Dkk1 was captured on SA (streptavidin) BIAcore chips according to the supplier's instructions. Biotinylated-human Dkk-1 protein was diluted into HBS-EP, and injected over the chip at a concentration of 5 μg/mL. Flow times across the individual chip channels were selected to achieve an antigen density of approximately 500-600 response units (RU). HBS-EP buffer was used as running buffer. Filtered recombinant E.coli cell lysates were injected at high temperature (37° C.) for 1 min at 30 ul/min, allowing a 1-5 min dissociation phase. Surfaces were regenerated with 8 mM NaOH+8% ethanol. A positive control Fab (clone 24) was injected twice at the start of the experiment, and again at the end of the assay to assess reproducibility.
For the ProteOn assay, biotinylated human Dkk-1 was injected for 1 min at serial fold dilutions empirically determined to yield different levels of immobilization (150-3000 RU) on five channels of a ProteOn NLC Neutravidin sensor chip. The sixth channel was left unmodified to serve as a reference surface. Recombinant Fabs in filtered E. coli lysates were injected at high temperature (37° C.) for 50 sec at 20 μl/min. Running buffer consisted of PBS+1 mg/ml BSA+0.005% Tween-20. The ProteOn is configured such that each injection flows over each of the five Dkk-1 channels as well as the reference channel, and six Fab samples can be injected simultaneously. Fab dissociation from the Dkk-1 surface was monitored for 20 min. The chip surface was regenerated with a 30-sec injection of 8% EtOH, 8 mM NaOH. Clone 24 Fab was used as control. Level of binding during association, and rate of dissociation for each clone was very consistent between different ligand channels. […]

[2] = target: T1, Recombinant human Dkk-1 (R&D Systems …); assay: SPR screening 37C (BIAcore/ProteOn), Fab lysate over biotinylated human Dkk-1
Description: as §1
For the ProteOn assay, biotinylated human Dkk-1 was injected for 1 min at serial fold dilutions empirically determined to yield different levels of immobilization (150-3000 RU) on five channels of a ProteOn NLC Neutravidin sensor chip. The sixth channel was left unmodified to serve as a reference surface. Recombinant Fabs in filtered E. coli lysates were injected at high temperature (37° C.) for 50 sec at 20 μl/min. Running buffer consisted of PBS+1 mg/ml BSA+0.005% Tween-20. The ProteOn is configured such that each injection flows over each of the five Dkk-1 channels as well as the reference channel, and six Fab samples can be injected simultaneously. Fab dissociation from the Dkk-1 surface was monitored for 20 min. The chip surface was regenerated with a 30-sec injection of 8% EtOH, 8 mM NaOH. Clone 24 Fab was used as control. Level of binding during association, and rate of dissociation for each clone was very consistent between different ligand channels.

Row | Binder | Kd [1] [nM] | koff [2] [s⁻¹]
1 | L3.4H5 (Fab, V domains shown, tested as Fab (E. coli lysate, screening mode); human kappa CL and IgG2 CH1 not included here) VH: EVQLVESGGGLVQPGGSLRLSCAASGFTFSSYAISWVRQAPGKGLEWVASVSGWGDTYYPDSVKGRFTISRDNAKNSLYLQMNSLRAEDTAVYYCASSLDNYAFDYWGQGTTVTVSS VL: EIVLTQSPATLSLSPGERATLSCRASESVDDFGISFINWYQQKPGQAPRLLIYAGSKQGSGIPARFSGSGSGTDFTLTISSLEPEDFAVYYCQQLKEVPPTFGGGTKVEIK | 0.808 | 0.000808
2 | SL3.3B11 (Fab, V domains shown, tested as Fab (E. coli lysate, screening mode); human kappa CL and IgG2 CH1 not included here) VH: EVQLVESGGGLVQPGGSLRLSCAASGFTFSSYAISWVRQAPGKGLEWVASVSGGGRTYYPDSVKGRFTISRDNAKNSLYLQMNSLRAEDTAVYYCATSLENYAFDYWGQGTTVTVSS VL: EIVLTQSPATLSLSPGERATLSCRASESVDDFGISFMNWYQQKPGQAPRLLIYAASKQGSGIPARFSGSGSGTDFTLTISSLEPEDFAVYYCQQAKEVPPTFGGGTKVEIK | 12 | 0.012
3 | SL3.3F4 (Fab, V domains shown, tested as Fab (E. coli lysate, screening mode); human kappa CL and IgG2 CH1 not included here) VH: EVQLVESGGGLVQPGGSLRLSCAASGFTFSSYAISWVRQAPGKGLEWVASVSGGGRTYYPDSVKGRFTISRDNAKNSLYLQMNSLRAEDTAVYYCATSLENYAFDYWGQGTTVTVSS VL: EIVLTQSPATLSLSPGERATLSCRASESVDDFGISFMNWYQQKPGQAPRLLIYAASKQGSGIPARFSGSGSGTDFTLTISSLEPEDFAVYYCQQSSEVPPTFGGGTKVEIK | 11.8 | 0.0118
4 | SL3.1G9 (Fab, V domains shown, tested as Fab (E. coli lysate, screening mode); human kappa CL and IgG2 CH1 not included here) VH: EVQLVESGGGLVQPGGSLRLSCAASGFTFSSYAISWVRQAPGKGLEWVASVSGGGRTYYPDSVKGRFTISRDNAKNSLYLQMNSLRAEDTAVYYCATSLENYAFDYWGQGTTVTVSS VL: EIVLTQSPATLSLSPGERATLSCRASESVDDFGISFMNWYQQKPGQAPRLLIYAASKQGSGIPARFSGSGSGTDFTLTISSLEPEDFAVYYCQQLKEVPPTFGGGTKVEIK | 0.947 | 0.000947
5 | SL3.4E4 (Fab, V domains shown, tested as Fab (E. coli lysate, screening mode); human kappa CL and IgG2 CH1 not included here) VH: EVQLVESGGGLVQPGGSLRLSCAASGFTFSSYAISWVRQAPGKGLEWVASVSGGGRTYYPDSVKGRFTISRDNAKNSLYLQMNSLRAEDTAVYYCATSLENYAFDYWGQGTTVTVSS VL: EIVLTQSPATLSLSPGERATLSCRASESVDDFGISFMNWYQQKPGQAPRLLIYAASKQGSGIPARFSGSGSGTDFTLTISSLEPEDFAVYYCQQSKDVPPTFGGGTKVEIK | 7.7 | 0.0077
6 | SL3.3A10 (Fab, V domains shown, tested as Fab (E. coli lysate, screening mode); human kappa CL and IgG2 CH1 not included here) VH: EVQLVESGGGLVQPGGSLRLSCAASGFTFSSYAISWVRQAPGKGLEWVASVSGGGRTYYPDSVKGRFTISRDNAKNSLYLQMNSLRAEDTAVYYCATSLENYAFDYWGQGTTVTVSS VL: EIVLTQSPATLSLSPGERATLSCRASESVDDFGISFMNWYQQKPGQAPRLLIYAASKQGSGIPARFSGSGSGTDFTLTISSLEPEDFAVYYCQQSKELPPTFGGGTKVEIK | 5.72 | 0.00572
7 | SL3.1F11 (Fab, V domains shown, tested as Fab (E. coli lysate, screening mode); human kappa CL and IgG2 CH1 not included here) VH: EVQLVESGGGLVQPGGSLRLSCAASGFTFSSYAISWVRQAPGKGLEWVASVSGGGRTYYPDSVKGRFTISRDNAKNSLYLQMNSLRAEDTAVYYCATSLENYAFDYWGQGTTVTVSS VL: EIVLTQSPATLSLSPGERATLSCRASESVDDFGISFMNWYQQKPGQAPRLLIYAASKQGSGIPARFSGSGSGTDFTLTISSLEPEDFAVYYCQQSWEVPPTFGGGTKVEIK | 5.4 | 0.0054
8 | SL3.1F12 (Fab, V domains shown, tested as Fab (E. coli lysate, screening mode); human kappa CL and IgG2 CH1 not included here) VH: EVQLVESGGGLVQPGGSLRLSCAASGFTFSSYAISWVRQAPGKGLEWVASVSGGGRTYYPDSVKGRFTISRDNAKNSLYLQMNSLRAEDTAVYYCATSLENYAFDYWGQGTTVTVSS VL: EIVLTQSPATLSLSPGERATLSCRASESVDDFGISFMNWYQQKPGQAPRLLIYAASKQGSGIPARFSGSGSGTDFTLTISSLEPEDFAVYYCQQSKEVPPYFGGGTKVEIK | 5.52 | 0.00552
9 | SL3.4C7 (Fab, V domains shown, tested as Fab (E. coli lysate, screening mode); human kappa CL and IgG2 CH1 not included here) VH: EVQLVESGGGLVQPGGSLRLSCAASGFTFSSYAISWVRQAPGKGLEWVASVSGGGRTYYPDSVKGRFTISRDNAKNSLYLQMNSLRAEDTAVYYCATSLENYAFDYWGQGTTVTVSS VL: EIVLTQSPATLSLSPGERATLSCRASESVDDFGISFMNWYQQKPGQAPRLLIYAASKQGSGIPARFSGSGSGTDFTLTISSLEPEDFAVYYCQHSKEVPPTFGGGTKVEIK | 7.3 | 0.0073
10 | SL3.3C10 (Fab, V domains shown, tested as Fab (E. coli lysate, screening mode); human kappa CL and IgG2 CH1 not included here) VH: EVQLVESGGGLVQPGGSLRLSCAASGFTFSSYAISWVRQAPGKGLEWVASVSGGGRTYYPDSVKGRFTISRDNAKNSLYLQMNSLRAEDTAVYYCATSLENYAFDYWGQGTTVTVSS VL: EIVLTQSPATLSLSPGERATLSCRASESVDDFGISFMNWYQQKPGQAPRLLIYAASKQGSGIPARFSGSGSGTDFTLTISSLEPEDFAVYYCQQSKEVWPTFGGGTKVEIK | 12.1 | 0.0121
11 | SL3.3H8 (Fab, V domains shown, tested as Fab (E. coli lysate, screening mode); human kappa CL and IgG2 CH1 not included here) VH: EVQLVESGGGLVQPGGSLRLSCAASGFTFSSYAISWVRQAPGKGLEWVASVSGGGRTYYPDSVKGRFTISRDNAKNSLYLQMNSLRAEDTAVYYCATSLENYAFDYWGQGTTVTVSS VL: EIVLTQSPATLSLSPGERATLSCRASESVDDFGISFMNWYQQKPGQAPRLLIYAASKQGSGIPARFSGSGSGTDFTLTISSLEPEDFAVYYCQQSKEVPGTFGGGTKVEIK | 22.9 | 0.0229
12 | SL3.1G2 (Fab, V domains shown, tested as Fab (E. coli lysate, screening mode); human kappa CL and IgG2 CH1 not included here) VH: EVQLVESGGGLVQPGGSLRLSCAASGFTFSSYAISWVRQAPGKGLEWVASVSGGGRTYYPDSVKGRFTISRDNAKNSLYLQMNSLRAEDTAVYYCATSLENYAFDYWGQGTTVTVSS VL: EIVLTQSPATLSLSPGERATLSCRASESVDDFGISFMNWYQQKPGQAPRLLIYAASKQGSGIPARFSGSGSGTDFTLTISSLEPEDFAVYYCQQSIEVPPTFGGGTKVEIK | 8.72 | 0.00872
13 | SL3.4D1 (Fab, V domains shown, tested as Fab (E. coli lysate, screening mode); human kappa CL and IgG2 CH1 not included here) VH: EVQLVESGGGLVQPGGSLRLSCAASGFTFSSYAISWVRQAPGKGLEWVASVSGGGRTYYPDSVKGRFTISRDNAKNSLYLQMNSLRAEDTAVYYCATSLENYAFDYWGQGTTVTVSS VL: EIVLTQSPATLSLSPGERATLSCRASESVDDFGISFMNWYQQKPGQAPRLLIYAASKQGSGIPARFSGSGSGTDFTLTISSLEPEDFAVYYCQQSMEVPPTFGGGTKVEIK | 7.5 | 0.0075
14 | SL3.1D2 (Fab, V domains shown, tested as Fab (E. coli lysate, screening mode); human kappa CL and IgG2 CH1 not included here) VH: EVQLVESGGGLVQPGGSLRLSCAASGFTFSSYAISWVRQAPGKGLEWVASVSGGGRTYYPDSVKGRFTISRDNAKNSLYLQMNSLRAEDTAVYYCATSLENYAFDYWGQGTTVTVSS VL: EIVLTQSPATLSLSPGERATLSCRASESVDDFGISFMNWYQQKPGQAPRLLIYAASKQGSGIPARFSGSGSGTDFTLTISSLEPEDFAVYYCQQSKEVPPLFGGGTKVEIK | 4.9 | 0.0049
15 | SL3.4A10 (Fab, V domains shown, tested as Fab (E. coli lysate, screening mode); human kappa CL and IgG2 CH1 not included here) VH: EVQLVESGGGLVQPGGSLRLSCAASGFTFSSYAISWVRQAPGKGLEWVASVSGGGRTYYPDSVKGRFTISRDNAKNSLYLQMNSLRAEDTAVYYCATSLENYAFDYWGQGTTVTVSS VL: EIVLTQSPATLSLSPGERATLSCRASESVDDFGISFMNWYQQKPGQAPRLLIYAASKQGSGIPARFSGSGSGTDFTLTISSLEPEDFAVYYCQQSLEVPPTFGGGTKVEIK | 7.3 | 0.0073
